The values below come from patent US20080089862A1, “PROTEASE INHIBITORS AND METHOD OF SCREENING THEREOF” (priority 2005, published 2008).

One data set has as its target T1, scNS3 (Hepatitis C virus genotype 1b, UniProt P26663).
T1 construct: a single-chain fusion linking the NS4A cofactor peptide to the N-terminus of the NS3 protease; inferred from the IMAC purification; made in house; host or cells: E. coli BL-21 (DE3) carrying pYB-43
Kind of data set: Competition ELISA with myc-tagged tracer scFvs 171 and 35 on scNS3-coated plates. In kind it is binding, Hepatitis C virus (HCV) genotype Ib. As to conditions: tracers scFv 171 and 35, myc tag. The method, then:
For competition ELISA the inventors replaced the C-terminal FLAG epitope of the scFvs that were used as tracers with a myc tag. Competing scFvs were added to scNS3-coated plates at varying concentrations and incubated at room temperature for 1 hr before adding the tracer scFvs. Binding of the tracers was monitored using a HRP-conjugated anti myc antibody (Sigma, Israel).
Background: ELISA stands for enzyme-linked immunosorbent assay.

Data set [1] concerns the target T2, MBP-scNS3 (Hepatitis C virus genotype 1b, UniProt P26663).
T2 construct: made in house
Kind of data set: ONPG hydrolysis (β-galactosidase) assay in genetic screening bacteria as indicator of NS3 activity. In kind it is cell-based, Hepatitis C virus (HCV) genotype Ib. As to conditions: E. coli TG-I carrying pMGT14 and pMALc-NN-scFv; taken from FIG. 3A. As for the experimental part: (§1) NS3 catalysis inhibition assays. Blue colonies of E. coli TG-I cells carrying pMGT14 and pMALc-NN-scFv that were isolated by the genetic screening were grown in LB medium supplemented with 100 μg/ml ampicillin, 50 μg/ml kanamycin and induced with 0.2% (w/v) arabinose and 0.5 mM IPTG at O.D600nm=0.6 for 4 hr at 30° C. To measure the β-galactosidase activity an ONPG hydrolysis assay (Bach et al., 2001) was carried out. An in vitro fluorometric assay for the measurement of NS3 protease catalysis inhibition by the purified scFvs was carried out essentially as described (Berdichevsky et al., 2003) with the following modifications: the EFGP-NS5A/B-CBD substrate was immobilized onto cellulose prior to its exposure to enzyme and inhibitor. The reactions were carried out in 96 well plates in a volume of 100 μl containing 5 μM immobilized substrate, 100 nM MBP-5cNS3 and 2.4 or 1.2 μM of tested MBP-scFv.

The target in data set [2] is T2, MBP-scNS3. Kind of data set: In vitro fluorometric assay of NS3 protease catalysis inhibition. The format is biochemical, Hepatitis C virus (HCV) genotype Ib. The note with it: 100% minus % catalysis of FIG. 3B; 100 nM MBP-scNS3, 5 μM immobilized substrate, 2.4 or 1.2 μM MBP-scFv. As for the experimental part:
as §1

A further data set addresses T3, NS3 (Hepatitis C virus genotype 1b, UniProt P26663).
T3 construct: made in house
Kind of data set: Competitive in vitro fluorometric assay with epitope mimetic peptide. The format is biochemical, Hepatitis C virus (HCV). The note with it: scFv 200 μg/ml. The text has this: In order to confirm the prediction of scFv 35 and 171 shared epitope on NS3, the epitope was reconstituted on basis of the prediction. To that end, a short peptide segment of NS3 that was predicted to comprise the antibodies shared epitope was used to generate an epitope mimetic. […] As negative controls, a peptide 21 amino acids in length denoted peptide 6 (N′-[…]-C, SEQ ID NO: 111) and a peptide eight amino acids in length denoted peptide x (N′-[…]-C, SEQ ID NO: 112) were used. To test whether those peptides have any effect on NS3 catalytic activity a control in vitro assay was performed, in which the peptides and the NS3 enzyme were added alone without the inhibitor antibodies.

For the next data set, the system named is HCV RNA replicons. Kind of data set: Inhibition of HCV RNA replicon amplification, SEAP secretion from replicon-bearing Huh7 cells transfected with intrabodies. The format is cell-based, HCV genotype Ib strain N. The note with it: transiently transfected intrabodies. The method, then: Cells and transfections. HCV genotype Ib strain N subgenomic replicon cell lines were obtained from Stanley Lemon and are described in (Bourne et al., 2005). En5-3 cells are a clonal cell line derived from Huh7 cells by stable transformation with the plasmid pLTR-SEAP. These cells were cultured in DMEM supplemented with 10% fetal calf serum, 2 μg/ml blasticidin (Invitrogen), penicillin, and streptomycin. Following transfection with Ntat2ANeo replicon RNAs, cells supporting replicon amplification were selected and maintained in the above media containing in addition 400 μg/ml G418 (geneticin). Cell lines were passaged once or twice per week. […] The culture medium was replaced every 24 h post transfection and the secreted alkaline phosphatase (SEAP) activity was measured in these fluids as described below, reflecting the daily production of SEAP by the cells.
Alkaline phosphatase assay. […] The luminescent signal was read using a TD-20/20 Luminometer (Turner Designs, Inc.).
For intracellular expression of the anti-NS3 protease single-chain antibodies in the cytoplasm of mammalian cells, the scFvs coding genes were subcloned as Ncol-Notl fragments, form plasmid pMALc-NN-scFv into the pCMV/myc/cyto-MBP vector (Shaki-Loewenstein et al, 2005). […] SEAP activity secreted from the cells was measured over successive 24-h intervals. […]

By % inhibition is commonly meant the drop in the measured response relative to a control, in per cent. Lower therefore signals little suppression.

B1: scFv 171: NS3-inhibiting single-chain antibody, SEQ ID NO:6; MBP fusion SEQ ID NO:20 (protein)
scFv: EVQLQQSGAELVRSGASVKLSCTASGFNIKDYYMHWVKQRPEQGLEWIGWIDPENGDTEYAPKFQGKATMTADTSSNTAYLQLSSLTSEDTAVYYCNAWGGSSDYYAMDYWGQGTSVTVSSGGGGSGGGGSGGGGSDVVMTQTPLSLPVSLGDQASISCRSSQSLVHSNGNTYLHWYLQKPGQSPKLLIYKVSNRFSGVPDRFSGSGSGTDFTLKISRVEAEDLGVYYCFQGSHVPWTFGGGTKLEIKR
modifications: scFv inhibitor
Take B1: the “competition with scFvs 171 and 35 for specific binding to scNS3” value (from here on “competition”) with scNS3 is recorded as “could compete”. In the data set with MBP-scNS3 [1], the “β-gal: β-galactosidase units” value is 67 β-galactosidase units. Besides, the “% inhibition” value in the data set with MBP-scNS3 [2] is given as 88%. Besides, the “NS3 catalysis with scFv, without peptide” value with NS3 (no peptide) was 60%. Besides, in the data set with NS3 (peptide mimetic 50 μM), the “NS3 catalysis with scFv in the presence of the epitope mimetic peptide” value was determined as 93% and the “increase of NS3 catalytic activity on adding the peptide mimetic” value is recorded as “more than 30%”. Besides, in the data set on HCV RNA replicons, the “inhibition of SEAP secretion (in words)” value is given as “most potent inhibitors”.

B2: scFv 11: NS3-inhibiting single-chain antibody, SEQ ID NO:10; MBP fusion SEQ ID NO:24 (protein)
scFv: EVQLQQSGAELVKPGASVKLSCTASGFNIKDYYMHWVKQRPGQGLEYIGRIYPGNGQTDYNGKFKGKATLTADKSSSTAYMQLSSLTSVDSAVYFCARGLFAYWGQGTLVTVSSGGGGSGGGGSGGGGSDVVMTQTPLSLPVSFGDQVSISCRSSQSLANSYGNTYLSWCLHKPGQSPQLLIYGISNRFSGVPDRFSGSGSGTDFTLKISTIKPEDLGMYYCLQGTHQPLTFGAGTKLEIKR
modifications: scFv inhibitor
Consider B2, for which the “competition” value with scNS3 is on record as “could compete”. Besides, in the data set with MBP-scNS3 [1], the “β-gal: β-galactosidase units” value is reported as 60 β-galactosidase units. The “% inhibition” value with MBP-scNS3 [2] worked out at 52%.

B3: scFv 10: NS3-inhibiting single-chain antibody, SEQ ID NO:11; MBP fusion SEQ ID NO:25 (protein)
scFv: QVQLQQSGAELMKPGASVKISCKATGYTFSNYWIEWVKQRPGHGLEWIGGILPGSGSTNYNEKFKGKATFTADTSSNTAYLQLSSLTSEDTAVYYCNADGPPGFDYWGQGTTLTVSSGGGGSGGGGSGGGGSDVLMTQTPLTLSVTIGQPASISCKSSQSLLDSDGKTYLNWLLQRPGQSPKRLIYLVSKLDSGVPDRFTGSGSGTDFTLKISRVEAEDLGVYYCFQGSHVPFTFGSGTKLEIKR
modifications: scFv inhibitor
In the case of B3, the “competition” value in the data set with scNS3 is given as “could compete”. In the data set with MBP-scNS3 [1], the “β-gal: β-galactosidase units” value is 48 β-galactosidase units. Besides, the “% inhibition” value in the data set with MBP-scNS3 [2] is 62%.

B4: scFv 162: NS3-inhibiting single-chain antibody, SEQ ID NO:5; MBP fusion SEQ ID NO:19 (protein)
scFv: EVQLQQSGAELVRSGASVKLSCTASGFNIKDYYMHWVKQRPEQGLEWIGWIDPANGNTKYDPKFQGKATITADTSSNTAYLQLSSLTSEDTAVYYCARWDWYFDVWGAGTTVTVSSGGGGSGGGGSGGGGSSVLMTQTPLSLPVSLGDQASISCRSSQSIVHSNGNTYLEWYLQKPGQSPKLLIYKVSNRFSGVPDRFSGSGSGTDFTLKISRVEAEDLGVYYCFQGSHVPWTFGGGTKLELKR
modifications: scFv inhibitor
As to B4, in the data set with scNS3, the “competition” value was “apparently did not”. Besides, in the data set with MBP-scNS3 [1], the “β-gal: β-galactosidase units” value was 84 β-galactosidase units. Besides, the “% inhibition” value with MBP-scNS3 [2] is given as 62%.

B5: scFv 1: NS3-inhibiting single-chain antibody, SEQ ID NO:1; MBP fusion SEQ ID NO:15 (protein)
scFv: EVQLQQSGPELVKPGASVKMSCKASGYTFTDYYIKWVKQSHGKSLEWIGVINPGSGGTNYNEKFKGKATLTADKSSSTAYMQLSSLTSENSAVYFCARRAGTGYYFDYWGQGTTVTVSSGGGGSGGGGSGGGGSDVLMTQTPLSLPVSLGDQASISCRSSQSIVHSNGNTYLEWYLQKPGQSPKLLIYKVSNRFSGVPDRFSGSGSGTDFTLKISRVEAEDLGVYYCFQGSHVPLTFGAGTKLEIKR
modifications: scFv inhibitor
With B5, the “competition” value with scNS3 is recorded as “could compete”. In the data set with MBP-scNS3 [1], the “β-gal: β-galactosidase units” value was 44 β-galactosidase units. In addition, the “% inhibition” value with MBP-scNS3 [2] amounted to 46%.

B6: scFv 148: NS3-inhibiting single-chain antibody, SEQ ID NO:7; MBP fusion SEQ ID NO:21 (protein)
scFv: EIQLQQSGAELVKPGASVKLSCTASGFNIKDTFVHWVKQRPEQGLEWIGRIDPANGNTKYDPKFQGKATITAATSSNTAYLQLSSLTSEDTAVYYCATGLDYYAMDYWGQGTSVTVSSGGGGSGGGGSGGGGSDVVMTQTPLSPPVSLGDQASISCRSSQSLVHSNGNTYLHWYLQKPGQSPKLLIYKVSNRFSGVPDRFSGSGSGTDFTLKITRVEAEDLGLYFCSQSTHVPWTFGGGTKLEIKR
modifications: scFv inhibitor
With B6, the “β-gal: β-galactosidase units” value with MBP-scNS3 [1] is recorded as 72 β-galactosidase units. The “% inhibition” value with MBP-scNS3 [2] is reported as 58%.
